The supplement of paper PMC7125110
± gives the standard error. Fewer inactive variants are shown than the library holds.

B1: glmS ribozyme (parent)
chain: AUAAAAGCGCCAGAACUACAGAAAUGUAGUUGACGAGGAGGAGGUUUAUCGAAUUUUCGGCGGAUGCCUCCAAA

How the values were obtained:
Details in all cases: with glucosamine-6-phosphate
[1] = variants of: B1; assay: self-cleavage kobs at 160 uM GlcN6P; higher = faster cleavage; RNA array
How it was run: (§1)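 The measurements used barcoded ribozyme variants on sequenced MiSeq chips, transcribed in situ by E. coli RNA polymerase and tracked at 37 °C with a hybridised Cy3 probe. Glucosamine-6-phosphate, 40 μM to 10 mM in HEPES/KCl/Mg(OAc)2 buffer, was flowed in while tiles were imaged over ~14 h. Baseline-normalised signals, also normalised to non-cleaving reference variants, gave per-tile medians that were fit to one- or two-exponential decays for kobs. kcat and KM resulted from weighted Michaelis–Menten fits across concentrations.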

[2] = variants of: B1; assay: self-cleavage kobs at 640 uM GlcN6P; higher = faster cleavage; RNA array
How it was run: as §1

[3] = variants of: B1; assay: self-cleavage kobs at 2500 uM GlcN6P; higher = faster cleavage; RNA array
How it was run: as §1

[4] = variants of: B1; assay: self-cleavage kobs at 10000 uM GlcN6P; higher = faster cleavage; RNA array
How it was run: as §1

Variant	self-cleavage kobs at 160 uM GlcN6P [1] [s⁻¹]	self-cleavage kobs at 640 uM GlcN6P [2] [s⁻¹]	self-cleavage kobs at 2500 uM GlcN6P [3] [s⁻¹]	self-cleavage kobs at 10000 uM GlcN6P [4] [s⁻¹]
G38U G41C G59C	< 1e-05	< 1e-05	–	–
G38C G63A	< 1e-05	< 1e-05	< 1e-05	–
G35A U55C C70A	< 1e-05	< 1e-05	–	–
G35A A36U U55A	< 1e-05	–	–	–
G41A G60C	< 1e-05	< 1e-05	–	< 1e-05
A36U U57G	< 1e-05	–	< 1e-05	< 1e-05
A42C U47C	< 1e-05	< 1e-05	< 1e-05	–
A42G G62C	< 1e-05	< 1e-05	< 1e-05	< 1e-05
G40A U45C	4.64e-05 ± 1.6e-05	–	0.000553 ± 0.00016	–
A33C G51U	< 1e-05	< 1e-05	–	< 1e-05
G43C U55A	< 1e-05	< 1e-05	–	–
G35A U49A C67G C68G	0.000246 ± 7.8e-05	9.7e-05 ± 2.3e-05	0.000118 ± 3.7e-05	–
G40A U55A	0.000151 ± 5.3e-05	0.00156 ± 0.0003	0.000842 ± 0.00022	–
G40C C50U U57A C58G U65A	< 1e-05	–	< 1e-05	–
G35C U69G	< 1e-05	–	< 1e-05	–
G40C A53U C70U	9.81e-05 ± 3.6e-05	9.65e-05 ± 2.1e-05	0.000268 ± 5.4e-05	–
C34U C71U	< 1e-05	< 1e-05	< 1e-05	< 1e-05
G35A G43U U45C A53G G59A	< 1e-05	< 1e-05	–	–
A33U G35U A42U G44U	< 1e-05	< 1e-05	< 1e-05	–
G41U G63C	< 1e-05	–	< 1e-05	< 1e-05
A42U U47C A52C	< 1e-05	–	< 1e-05	–
A33U G41U A52U	< 1e-05	< 1e-05	< 1e-05	–
A39C U57G C71A	< 1e-05	< 1e-05	< 1e-05	–
A36C U49A C70U	4.96e-05 ± 2e-05	–	–	–
G37C A39G G44A	< 1e-05	< 1e-05	–	–

Variant	self-cleavage kobs at 160 uM GlcN6P [1] [s⁻¹]	self-cleavage kobs at 640 uM GlcN6P [2] [s⁻¹]	self-cleavage kobs at 2500 uM GlcN6P [3] [s⁻¹]	self-cleavage kobs at 10000 uM GlcN6P [4] [s⁻¹]
A33U C68A C70G	< 1e-05	–	< 1e-05	–
G38A A53C	< 1e-05	–	–	–
G35C U57G G59C	< 1e-05	–	–	–
G38A A64G C67U	< 1e-05	–	–	–
G38C U46G A64U	< 1e-05	< 1e-05	–	–
G40A C50U	< 1e-05	< 1e-05	–	< 1e-05
C34G U56A G62A C67U	< 1e-05	–	–	–
A36C U45C	< 1e-05	< 1e-05	< 1e-05	–
G44U U45G U69A	< 1e-05	–	–	–
A33C A36G	< 1e-05	< 1e-05	< 1e-05	< 1e-05
A33C G37A G63C	< 1e-05	< 1e-05	< 1e-05	–
G43C C61U	< 1e-05	< 1e-05	< 1e-05	< 1e-05
C34A G35C	< 1e-05	–	< 1e-05	–
G38C G43A	< 1e-05	< 1e-05	< 1e-05	< 1e-05
A33G U47G A48C G51C	< 1e-05	–	–	–
A33U G35A	< 1e-05	< 1e-05	< 1e-05	–
A36G G41C A53U	< 1e-05	< 1e-05	–	–
A36U G63C C67U	< 1e-05	< 1e-05	< 1e-05	–
G37C U47C A52U	< 1e-05	–	–	–
G40C G44A A53C	< 1e-05	< 1e-05	< 1e-05	–
G37A C50A C61G	< 1e-05	< 1e-05	–	–
A33C A39C A52U C70U	< 1e-05	< 1e-05	–	–
C34G U56C	< 1e-05	–	–	–
G43A U45A C61G	< 1e-05	< 1e-05	–	–
A36U G51C	< 1e-05	< 1e-05	–	< 1e-05

Variant	self-cleavage kobs at 160 uM GlcN6P [1] [s⁻¹]	self-cleavage kobs at 640 uM GlcN6P [2] [s⁻¹]	self-cleavage kobs at 2500 uM GlcN6P [3] [s⁻¹]	self-cleavage kobs at 10000 uM GlcN6P [4] [s⁻¹]
A36C G41A G66U	< 1e-05	–	< 1e-05	–
A36C G41C	< 1e-05	< 1e-05	< 1e-05	< 1e-05
G35A G41C U69A	< 1e-05	< 1e-05	< 1e-05	–
G37A U49C	< 1e-05	< 1e-05	< 1e-05	< 1e-05
C34U G35C	< 1e-05	–	< 1e-05	< 1e-05
C34U G35U A39C G63A C67U	< 1e-05	–	–	–
G43C U55G U56G C67G	< 1e-05	–	–	–
G37C G41A C50G G60A C67G C68A	9.12e-05 ± 1.6e-05	8.46e-05 ± 1.9e-05	9.58e-05 ± 1.3e-05	–
G35U U49G	< 1e-05	< 1e-05	< 1e-05	< 1e-05
G37A C50G C71A	0.000356 ± 0.00012	0.000114 ± 3.6e-05	6.17e-05 ± 2.4e-05	–
A33U U65G	< 1e-05	< 1e-05	–	–
C34U G63A G66U	< 1e-05	< 1e-05	–	–
C34A A64C C68U	< 1e-05	< 1e-05	< 1e-05	–
G38A G41A C71A	< 1e-05	–	< 1e-05	–
G38A G44U C58A	< 1e-05	< 1e-05	< 1e-05	–
G43A G59A A64U	< 1e-05	–	–	< 1e-05
G38A G60U	< 1e-05	< 1e-05	< 1e-05	< 1e-05
A39C U49A C61U C68G	< 1e-05	–	< 1e-05	–
G35U A42C	< 1e-05	< 1e-05	< 1e-05	–
G38U G43U U65C	< 1e-05	–	–	–
G41U G51A	< 1e-05	< 1e-05	< 1e-05	< 1e-05
G44A G51U	< 1e-05	–	–	< 1e-05
A42C C61U	< 1e-05	< 1e-05	< 1e-05	–
A39G C50G	0.000247 ± 0.00011	–	–	–
A36G A48G	< 1e-05	< 1e-05	< 1e-05	< 1e-05

Variant	self-cleavage kobs at 160 uM GlcN6P [1] [s⁻¹]	self-cleavage kobs at 640 uM GlcN6P [2] [s⁻¹]	self-cleavage kobs at 2500 uM GlcN6P [3] [s⁻¹]	self-cleavage kobs at 10000 uM GlcN6P [4] [s⁻¹]
A42C A52G U55A U57G C68U C70U	< 1e-05	< 1e-05	< 1e-05	–
A33G C34A U55A C70A	0.00034 ± 0.00013	9.12e-05 ± 3.4e-05	–	–
G40U U45A U56G	6.56e-05 ± 1.6e-05	–	0.000611 ± 0.00014	–
G35C C67G	< 1e-05	< 1e-05	< 1e-05	–
G37A G38U U55C	< 1e-05	< 1e-05	–	–
G35C A36U C58U	< 1e-05	–	< 1e-05	–
G35C U46C C50A	< 1e-05	–	–	< 1e-05
G35A G41C	< 1e-05	< 1e-05	–	–
G44U C58A C71A	< 1e-05	< 1e-05	< 1e-05	–
G38C G44U C50U	< 1e-05	< 1e-05	–	–
A33C G44U	< 1e-05	< 1e-05	< 1e-05	< 1e-05
G41A C50G	< 1e-05	< 1e-05	< 1e-05	< 1e-05
A36U A42U	< 1e-05	< 1e-05	< 1e-05	< 1e-05
A42G C50G A64G	< 1e-05	–	–	–
G35U C50U	< 1e-05	–	–	< 1e-05
G35C A42U G43A A52U	< 1e-05	< 1e-05	< 1e-05	–
A33U U47A G62U A64G C71U	< 1e-05	< 1e-05	–	–
G44C A64U	< 1e-05	–	< 1e-05	–
G44A U49A	< 1e-05	< 1e-05	< 1e-05	< 1e-05
G41U G44C U54C	< 1e-05	< 1e-05	< 1e-05	–
G32U G63C	< 1e-05	< 1e-05	–	< 1e-05
G38A G40A U49G G60U	< 1e-05	< 1e-05	< 1e-05	–
A42C G44A U49C	< 1e-05	< 1e-05	< 1e-05	–
A39C G44U U46C G60U G63C C68A C71A	< 1e-05	< 1e-05	< 1e-05	–
